Legend:
[1] = molecular target: GST-Ubx NES-mutated (Drosophila); test: pull-down
[2] = molecular target: VC-Ubx^NES (NES-mutated full length Ubx fused to the C-terminal fragment of Venus) (Drosophila); test: split reporter

| percent loss of pulled-down Emb against wild type GST-Ubx [1] | percent decrease of BiFC fluorescence in the nucleus against wild type Ubx [2] | Substance |
| --- | --- | --- |
| 30% | – | VC-Emb, in S2R+ cell extract (from UniProt Q9TVM2 1-1063) (natural protein) |
| – | 40% | VN-Emb (Embargoed fused to the N-terminal fragment of Venus) (from UniProt Q9TVM2 1-1063) (natural protein) |
